According to patent US20230203469A1:

Legend:
[1] = molecular target: recombinant VWF (full-length, multimeric rVWF), P04275
[2] = molecular target: T1, FRETS-VWF73 substrate, P04275
T1 chain: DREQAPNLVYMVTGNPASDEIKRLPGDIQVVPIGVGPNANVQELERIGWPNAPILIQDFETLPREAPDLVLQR

B1: Q97 ADAMTS13 (wildtype recombinant ADAMTS13) (protein)
chain: AAGGILHLELLVAVGPDVFQAHQEDTERYVLTNLNIGAELLRDPSLGAQFRVHLVKMVILTEPEGAPNITANLTSSLLSVCGWSQTINPEDDTDPGHADLVLYITRFDLELPDGNRQVRGVTQLGGACSPTWSCLITEDTGFDLGVTIAHEIGHSFGLEHDGAPGSGCGPSGHVMASDGAAPRAGLAWSPCSRRQLLSLLSAGRARCVWDPPRPQPGSAGHPPDAQPGLYYSANEQCRVAFGPKAVACTFAREHLDMCQALSCHTDPLDQSSCSRLLVPLLDGTECGVEKWCSKGRCRSLVELTPIAAVHGRWSSWGPRSPCSRSCGGGVVTRRRQCNNPRPAFGGRACVGADLQAEMCNTQACEKTQLEFMSQQCARTDGQPLRSSPGGASFYHWGAAVPHSQGDALCRHMCRAIGESFIMKRGDSFLDGTRCMPSGPREDGTLSLCVSGSCRTFGCDGRMDSQQVWDRCQVCGGDNSTCSPRKGSFTAGRAREYVTFLTVTPNLTSVYIANHRPLFTHLAVRIGGRYVVAGKMSISPNTTYPSLLEDGRVEYRVALTEDRLPRLEEIRIWGPLQEDADIQVYRRYGEEYGNLTRPDITFTYFQPKPRQAWVWAAVRGPCSVSCGAGLRWVNYSCLDQARKELVETVQCQGSQQPPAWPEACVLEPCPPYWAVGDFGPCSASCGGGLRERPVRCVEAQGSLLKTLPPARCRAGAQQPAVALETCNPQPCPARWEVSEPSSCTSAGGAGLALENETCVPGADGLEAPVTEGPGSVDEKLPAPEPCVGMSCPPGWGHLDATSAGEKAPSPWGSIRTGAQAAHVWTPAAGSCSVSCGRGLMELRFLCMDSALRVPVQEELCGLASKPGSRREVCQAVPCPARWQYKLAACSVSCGRGVVRRILYCARAHGEDDGEEILLDTQCQGLPRPEPQEACSLEPCPPRWKVMSLGPCSASCGLGTARRSVACVQLDQGQDVEVDEAACAALVRPEASVPCLIADCTYRWHVGTWMECSVSCGDGIQRRRDTCLGPQAQAPVPADFCQHLPKPVTVRGCWAGPCVGQGTPSLVPHEEAAAPGRTTATPAGASLEWSQARGLLFSPAPQPRRLLPGPQENSVQSSACGRQHLEPTGTIDMRGPGQADCAVAIGRPLGEVVTLRVLESSLNCSAGDMLLLWGRLTWRKMCRKLLDMTFSSKTNTLVVRQRCGRPGGGVLLRYGSQLAPETFYRECDMQLFGPWGEIVSPSLSPATSNAGGCRLFINVAPHARIAIHALATNMGAGTEGANASYILIRDTHSLRTTAFHGQQVLYWESESSQAEMEFSEGFLKAQASLRGQYWTLQSWVPEMQDPQSWKGKEGT
Degradation of full-length rVWF under denaturing conditions (VWF multimer analysis) [1]: Comparable | Specific rADAMTS13 activity (activity per total protein by UV) [2]: 1750 IU/mg | rADAMTS13 Activity (FRETS VWF73) [2]: 2210 IU/mL
